How the values were obtained:
[1] = molecular target: T1, MtrA Y102C~P Y102C (UniProt P9WGM7); experiment: EMSA; settings: 50 mM Tris-HCl pH 7.5, 50 mM NaCl, 10 mM MgCl2, 10 mM CaCl2, […]
T1 sequence: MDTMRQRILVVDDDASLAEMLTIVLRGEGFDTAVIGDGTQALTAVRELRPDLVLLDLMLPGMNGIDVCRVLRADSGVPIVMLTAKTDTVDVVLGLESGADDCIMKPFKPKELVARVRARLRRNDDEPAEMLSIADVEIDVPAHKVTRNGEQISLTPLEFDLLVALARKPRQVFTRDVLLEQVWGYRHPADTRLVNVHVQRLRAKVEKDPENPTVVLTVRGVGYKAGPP

[2] = molecular target: T2, MtrA Y102C (unphosphorylated) Y102C (UniProt P9WGM7); experiment: EMSA; settings: 50 mM Tris-HCl pH 7.5, 50 mM NaCl, 10 mM MgCl2, 10 mM CaCl2, […]
T2 sequence: T1 sequence

For “CTGTGCAGAGTAGGTGATCGGCGGCCCGACCGCGAGGAGCCGCGCTGTGACTGGCGGGACGAAAGTTACAGATGAAGATATTTGCGTCCGGTGTCGGTGAGCACGCTGCGCAGGATGGTTTCGATGGTGTCGAACTCGGGCTGTCCGCTAATCAGCGGGGGAGCCACCTGGACGACGGGGTCCCCGCGGTCGTCGGTG (double strand) [PdacB1]”, the binding [1] was “binds” and the binding [2] was “binds”.

Source: paper PMC6265350
